Legend:
[1] = target: Recombinant human leukemia inhibitory factor (LIF) (human) (UniProt P15018); assay: Scatchard analysis, LIF-R/Fc on Protein G Sepharose beads with serial dilutions of 125I-LIF
[2] = target: LIF receptors on the surface of DA-1 cells; assay: 125I-LIF binding to intact DA-1 cells, phthalate oil separation
[3] = target: Human LIF-R encoded by cDNA clone 65 (pHLIFR-65), expressed on transfected COS-7 cells (human); assay: 125I-LIF binding to COS cells transfected with LIF-R cDNA clone 65, Scatchard analysis

| Substance | Ka [1] | Ka [2] | Ka [3] |
| --- | --- | --- | --- |
| Soluble human LIF-R/Fc homodimer (Fc fusion) | 9e+08 M⁻¹ | – | – |
| Recombinant human leukemia inhibitory factor (LIF) (from UniProt P15018) (ligand) | – | 7.4e+08 M⁻¹ | > 1e+09 M⁻¹ |
